Consider 5 molecules from patent US10709769B2, “Use of endostatin peptides for the treatment of fibrosis” (University of Pittsburgh—Of the Commonwealth System of …, priority 2009, dated 2020).

One data set has as its system human skin explants. The data set can be described thus: Ex vivo human skin fibrosis organ culture, dermal thickness. In kind it is cell-based. Particulars: for dermal thickness, baseline effect: injected alone without TGF-β, rE 1, 5, 10 μg/ml, peptides 10 μg/ml. As to the method:
Human abdominal skin was obtained from corrective plastic surgery. As previously described (Yasuoka et al., The Open Rheumatol J 2008; 2:17-22), subcutaneous fat tissue was removed uniformly and skin tissue was cut into 1.5 cm×1.5 cm sections. The following were injected intradermally in a total volume of 100 μl 1×PBS: rE alone (1-10 μg/ml), endostatin peptides alone (10 μg/ml), rE or endostatin peptides (1-20 μg/ml) in combination with TGF-β (10 ng/ml), and TGF-β alone (10 ng/ml). In some experiments, human skin was first injected with TGF-β for 48 h followed by recombinant endostain (rE) administration in the same injection site as TGF-β. Explants containing complete epidermal and dermal layers were cultured in an air liquid interface with the epidermal and keratin layers side up and exposed to air. The culture medium was replaced every other day. After 1 or 2 weeks, skin tissue corresponding to an area with 8-mm diameter centered around the injection site was harvested using disposable 8-mm Acu Punch® (Acuderm inc., Lauderdale, Fla.). Skin tissue was fixed in 10% formalin prior to embedding in paraffin.
(§1) Six μm sections of paraffin-embedded human and mouse skin tissues were stained with hematoxylin and eosin (H&E). In some experiments, sections were stained with Masson trichrome which identifies collagens. Images were taken on a Nikon Eclipse 800 microscope. The thickness of the dermis was measured in 6 random fields of each section using the image/J® software. Data are shown in arbitrary units.

The test system of the next data set is mouse skin. The data set is described as follows: TGF-β-induced dermal fibrosis in vivo in mouse skin. To be noted: mice, intradermal, 10 μg/ml with TGF-β 10 ng/ml, one week post-injection. The procedure: FIG. 9. E4 reverses TGF β-induced dermal fibrosis even if administered 3 days following TGF-β.
CB57BL6/J male mice were purchased from The Jackson Laboratory (Bar Harbor, Me.). Human rE (10 μg/ml) or Endostatin peptides (10 μg/ml) in combination with TGF-β (10 ng/ml), or TGF-β alone were injected intradermally on the back of mice in a total volume of 100 μl 1×PBS. Mice were injected in two different skin sites and sacrificed one week post-injection. Skin surrounding the injection site was harvested and fixed in 10% formalin prior to embedding in paraffin.
as §1
E4, a peptide representing the carboxy terminus of human endostatin, can attenuate fibrosis triggered by multiple fibrogenic factors. The anti-fibrotic effects of E4 can be detected whether administered concomitantly with or following the fibrogenic trigger. The efficacy of E4 was confirmed in […] pre-clinical models of fibrosis: a) bleomycin-induced dermal fibrosis in vivo in mouse skin, b) TGF-β induced dermal fibrosis in mouse skin, and c) bleomycin-induced pulmonary fibrosis. E4 peptide or a control peptide (E1; representing the amino terminal region of endostatin) were administered at the same time as TGF-β or bleomycin or 3-4 days following TGF-β or bleomycin. Mice were sacrificed one and two weeks after TGF-β-initiation of dermal fibrosis, and two and three weeks after bleomycin-induced pulmonary fibrosis. Two different modes of administration of the E4 peptide were also tested. It was confirmed that intraperitoneal and intratracheal administration was effective. The amount of E4 that was administered ws 10 μg/ml in a total volume of 100 μl for skin and IP injections and 50 μl for IT administration.

Data set [1] deals with human primary lung fibroblasts. The data set is described as follows: FN and Col1α1 western blot in TGF-β-treated primary lung fibroblasts. In kind it is cell-based. Particulars: normal human lung fibroblasts; TGF-β 10 ng/ml 24 h, then 5 μg/ml rE or peptide 48 h; vs TGF-β alone. The procedure: (§2) Human primary lung and skin fibroblasts were cultured. The explanted lungs of normal organ donors, patients with SSc or IPF, and clinically involved skin of SSc patients, a morphea patient and healthy donors were used for primary fibroblast culture. Approximately 2-cm pieces of peripheral lung and skin were minced and fibroblasts were cultured in Dulbecco's modified Eagle's medium (DMEM; Mediatech, Herndon, Va.) supplemented with 10% FBS, penicillin, streptomycin, and anti-mycotic agent, as previously described (Feghali et al., Arthritis Rheum 1999; 42:1451-7). All the cells were used between passages 3-6.
Cellular lysates were obtained from cultured fibroblasts as previously described (Pilewski et al., Am J Pathol 2005; 166:399-407). Briefly, 2.0×10^5 primary fibroblasts were cultured in 35-mm wells in 0.5% FBS-containing medium supplemented with 10 ng/ml of human recombinant TGF-β or PBS as vehicle control for 24 h, following which 5 μg/ml of human rE, endostatin peptides (E1-E4), or DMSO (vehicle) was added for 48 h. In some experiments, endostatin peptides were used without TGF-β stimulation. Cellular lysates were analyzed by western blot. Signals were detected following incubation with horseradish peroxidase-conjugated secondary antibody and chemiluminescence (Perkin Elmer Life Sciences, Inc., Boston, Mass.). The intensity of individual bands with expected molecular sizes was semi-quantitatively analyzed using the image/J® software available at on the internet (/rsb.info.nih.gov/ij/index.html), and normalized to individual GAPDH intensity.
To evaluate whether endostatin modulates production of ECM components in fibroblasts, FN and Col1α1 expression was examined in normal human lung fibroblasts by western blot analysis. Cells were treated with 5 µg/ml rE for 48 h with or without pre-stimulation with human TGF-β for 24 h. […] To define the functional domain of endostatin that mediates its inhibitory effect, four different peptides were synthesized corresponding to different regions of endostatin (Table 1).

The test system of data set [2] is human primary skin fibroblasts. The data set is described as follows: TGF-β-induced ECM production in primary skin (dermal) fibroblasts, western blot. In kind it is cell-based. Particulars: dermal fibroblasts from healthy controls, SSc or morphea patients. The procedure: as §2
Cellular lysates were obtained from cultured fibroblasts as previously described (Pilewski et al., Am J Pathol 2005; 166:399-407). […] Cellular lysates were analyzed by western blot. Signals were detected following incubation with horseradish peroxidase-conjugated secondary antibody and chemiluminescence (Perkin Elmer Life Sciences, Inc., Boston, Mass.). The intensity of individual bands with expected molecular sizes was semi-quantitatively analyzed using the image/J® software available at on the internet (/rsb.info.nih.gov/ij/index.html), and normalized to individual GAPDH intensity. […]
In general terms: Immunoblotting shows a protein as a band on a membrane.

The test system of data set [3] is Human umbilical vein endothelial cells (HUVECs). The data set can be described thus: Tubular formation assay in Matrigel. Particulars: 50 nM, 24 hours. In kind it is cell-based. The procedure: The ability of endostatin peptide to inhibit angiogenesis was examined in tubular formation assay using Matrigel® culture. Human umbilical vein endothelial cells (HUVECs) were maintained in endothelial cell basal medium-2 (EBM-2; Clonetics, San Diego, Calif.) supplemented with EBM-2 MV SingleQuots®. HUVECs (5×10^4) were cultured in duplicate on 24-well Matrigel® plates (BD Biosciences, San Diego, Calif.) alone, or in the presence of rE or E4 peptide (50 nM) in EBM-2 at 37° C. DMSO was used as vehicle control. After 24 hours, images were captured using a […] microscope. The degree of cord formation was quantified by measuring the area occupied by tubes in 6 random fields per well. Three independent experiments were performed.

For data set [4] the following is noted: cited from earlier work.

Take “H-^133SYCETWRTEAPSATGQASSLLGGRLLGQSAASCHHAYIVLCIENSFMT^180-OH (H-SYCETWRTEAPSATGQASSLLGGRLLGQSAASCHHAYIVLCIENSFMT-OH; cysteine pairing not given here; UniProt P39060 1704-1751, looked up, fragment) [E3, human endostatin fragment, amino acids 133-180]”: the “dermal thickness, baseline effect” value with human skin explants is “tendency towards reduction”. For the same molecule, the “development of fibrosis as measured by dermal thickness” value in the data set with human skin explants (peptides 10 μg/ml with TGF-β 10 ng/ml, vs TGF-β alone) is “significantly abolished”. The “TGF-β-induced dermal fibrosis (dermal thickness)” value with mouse skin is recorded as “prevented”.
For “H-^71IVNLKDELLFPSWEALFSGSEGPLKPGARIFSFDGKDVLRHPTWP^115-OH (H-IVNLKDELLFPSWEALFSGSEGPLKPGARIFSFDGKDVLRHPTWP-OH; UniProt P39060 1642-1686, looked up, fragment) [E2, human endostatin fragment, amino acids 71-115]”, the “TGF-β-induced dermal fibrosis (dermal thickness)” value in the data set on mouse skin is “significantly reduced”.
For the molecule “H-^1HSHRDFQPVLHLVALNSPLSGGMRGIRGADFQCFQQARAVGLAGT^45-OH (H-HSHRDFQPVLHLVALNSPLSGGMRGIRGADFQCFQQARAVGLAGT-OH; UniProt P39060 1572-1616, looked up, fragment) [E1, human endostatin fragment, amino acids 1-45; amino terminal control peptide]”, the “FN and Col1α1 levels/production” value in data set [1] is given as “had no effect”. Also, in the data set with mouse skin, the “TGF-β-induced dermal fibrosis (dermal thickness)” value was “did not alter”.

B1: full-length recombinant human endostatin (protein, UniProt P39060 1572-1754, looked up)
Endostatin: HSHRDFQPVLHLVALNSPLSGGMRGIRGADFQCFQQARAVGLAGTFRAFLSSRLQDLYSIVRRADRAAVPIVNLKDELLFPSWEALFSGSEGPLKPGARIFSFDGKDVLRHPTWPQKSVWHGSDPNGRRLTESYCETWRTEAPSATGQASSLLGGRLLGQSAASCHHAYIVLCIENSFMTASK
modifications: Endostatin
notes: full-length recombinant human endostatin purchased from Sigma-Aldrich
On to B1, for which the “FN and Col1α1 levels/production” value in data set [1] is “dramatically reduced”. Further, the “TGF-β-induced ECM production (FN, Col1α1)” value in data set [2] is reported as “reduced”. In addition, the “TGF-β-induced dermal fibrosis, delayed treatment” value with human skin explants (injected 2 days after TGF-β administration) is “significantly ameliorated”. Further, the “dermal thickness, baseline effect” value in the data set with human skin explants is “tendency towards reduction”. Moreover, the dermal thickness result with human skin explants (rE 1, 5, 10 μg/ml injected simultaneously with TGF-β 10 ng/ml, one week, dose-dependent) is given as “significantly reduced”. For the same molecule, the “inhibition of tubular structure formation” value in data set [3] is listed as “significant”.

B2: ENDSTAR: recombinant human endostatin purified from E. coli containing an additional nine-amino acid sequence, his-tagged; approved for non-small-cell lung cancer in China (protein, UniProt P39060 1572-1754, looked up)
Endostatin: B1 Endostatin
modifications: Endostatin additional nine-residue His tag
notes: approved for non-small-cell lung cancer in China
Take B2: the half-life result in data set [4] is given as “short”.
